Assay results: patent US20230151091A1 (NEW YORK UNIVERSITY, published 2023)

T1: mouse MuSK (mouse, UniProt Q61006 22-494, limits assumed)
T1 construct: Coated on ELISA plates or on the Biacore chip; also called full length mouse MuSK; mouse MuSK (in house produced in HEK293 cells)
T1 sequence (looked up): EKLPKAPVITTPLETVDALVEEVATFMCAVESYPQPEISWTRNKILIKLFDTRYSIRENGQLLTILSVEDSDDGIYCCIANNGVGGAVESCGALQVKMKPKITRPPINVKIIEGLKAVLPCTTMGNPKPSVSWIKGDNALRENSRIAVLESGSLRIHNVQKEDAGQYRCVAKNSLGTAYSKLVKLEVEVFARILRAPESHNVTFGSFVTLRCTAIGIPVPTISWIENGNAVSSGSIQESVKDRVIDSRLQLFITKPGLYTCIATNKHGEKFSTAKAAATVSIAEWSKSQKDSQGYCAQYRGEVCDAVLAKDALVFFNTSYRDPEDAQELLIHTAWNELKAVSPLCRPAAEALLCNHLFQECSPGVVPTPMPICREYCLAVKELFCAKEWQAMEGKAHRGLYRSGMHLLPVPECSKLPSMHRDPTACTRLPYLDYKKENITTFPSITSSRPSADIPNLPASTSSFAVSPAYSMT

T2: rat MuSK (rat, UniProt Q62838 22-494, limits assumed)
T2 construct: Coated on Biacore chip (200RU) or ELISA plate
T2 sequence (looked up): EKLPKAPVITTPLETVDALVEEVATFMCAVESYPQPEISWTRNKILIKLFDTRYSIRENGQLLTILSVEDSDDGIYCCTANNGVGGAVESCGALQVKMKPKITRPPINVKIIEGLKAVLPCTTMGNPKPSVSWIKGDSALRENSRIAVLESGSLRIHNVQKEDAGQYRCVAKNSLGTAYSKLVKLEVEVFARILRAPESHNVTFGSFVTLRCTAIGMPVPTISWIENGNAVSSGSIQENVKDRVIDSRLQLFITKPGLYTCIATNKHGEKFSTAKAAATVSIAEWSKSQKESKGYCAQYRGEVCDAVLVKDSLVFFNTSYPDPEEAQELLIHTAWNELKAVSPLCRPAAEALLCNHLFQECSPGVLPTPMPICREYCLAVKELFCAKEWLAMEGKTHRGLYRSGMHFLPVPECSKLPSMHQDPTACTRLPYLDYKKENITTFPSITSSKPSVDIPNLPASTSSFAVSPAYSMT

T3: mFz: Fz domain and C-terminal flanking sequence of mouse MuSK (D307 to T494) with C-terminal Avi- and … (mouse, UniProt Q61006 307-494, limits assumed, biotinylated in vitro using the BirA enzyme)
T3 construct: also called mouse Fz; not shown: Avi- and His6-tags
T3 sequence (looked up): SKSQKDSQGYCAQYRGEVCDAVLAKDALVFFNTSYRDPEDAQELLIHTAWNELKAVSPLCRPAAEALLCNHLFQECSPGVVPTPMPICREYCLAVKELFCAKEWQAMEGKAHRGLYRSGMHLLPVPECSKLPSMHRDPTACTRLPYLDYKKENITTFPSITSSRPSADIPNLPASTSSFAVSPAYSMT

T4: hECD: full-length extracellular region of human MuSK (E22 to T495) with C-terminal Avi- and His6-tags (human, UniProt O15146 22-495, biotinylated in vitro using the BirA enzyme)
T4 construct: also called human ECD; not shown: Avi- and His6-tags
T4 sequence: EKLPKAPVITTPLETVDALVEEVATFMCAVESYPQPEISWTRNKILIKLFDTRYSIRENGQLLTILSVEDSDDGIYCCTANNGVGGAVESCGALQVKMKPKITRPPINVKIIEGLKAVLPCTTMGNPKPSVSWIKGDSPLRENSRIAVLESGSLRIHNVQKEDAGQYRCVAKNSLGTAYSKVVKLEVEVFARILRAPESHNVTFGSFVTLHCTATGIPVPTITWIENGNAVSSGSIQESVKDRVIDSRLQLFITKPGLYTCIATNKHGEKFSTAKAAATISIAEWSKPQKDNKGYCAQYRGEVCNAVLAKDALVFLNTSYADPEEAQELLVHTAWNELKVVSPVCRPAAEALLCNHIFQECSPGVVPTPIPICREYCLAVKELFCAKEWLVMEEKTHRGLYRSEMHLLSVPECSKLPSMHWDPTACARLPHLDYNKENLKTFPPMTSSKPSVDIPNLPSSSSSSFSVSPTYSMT

T5: mECD: full-length extracellular region of mouse MuSK (E22 to T494) with C-terminal Avi- and His6-tags (mouse, UniProt Q61006 22-494, biotinylated in vitro using the BirA enzyme)
T5 construct: range 22-494; also called mouse ECD; not shown: Avi- and His6-tags
T5 sequence (looked up): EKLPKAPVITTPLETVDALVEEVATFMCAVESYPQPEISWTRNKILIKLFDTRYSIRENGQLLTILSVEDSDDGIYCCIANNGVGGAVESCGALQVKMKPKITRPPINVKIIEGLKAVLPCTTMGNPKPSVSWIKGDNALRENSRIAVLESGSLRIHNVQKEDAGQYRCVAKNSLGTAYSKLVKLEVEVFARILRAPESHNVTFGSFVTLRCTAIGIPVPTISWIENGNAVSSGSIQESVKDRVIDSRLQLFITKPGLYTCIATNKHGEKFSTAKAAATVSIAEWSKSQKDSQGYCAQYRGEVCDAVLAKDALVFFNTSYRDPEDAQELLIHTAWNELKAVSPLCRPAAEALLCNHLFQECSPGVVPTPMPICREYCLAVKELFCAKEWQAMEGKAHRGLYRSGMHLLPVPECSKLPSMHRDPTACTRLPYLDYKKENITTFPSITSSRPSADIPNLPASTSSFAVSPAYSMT

T6: hFz: Fz domain and C-terminal flanking sequence of human MuSK (K314-T495) with C-terminal Avi- and His6-tags (human, UniProt O15146 314-495, biotinylated in vitro using the BirA enzyme)
T6 construct: also called human Fz; not shown: Avi- and His6-tags
T6 sequence: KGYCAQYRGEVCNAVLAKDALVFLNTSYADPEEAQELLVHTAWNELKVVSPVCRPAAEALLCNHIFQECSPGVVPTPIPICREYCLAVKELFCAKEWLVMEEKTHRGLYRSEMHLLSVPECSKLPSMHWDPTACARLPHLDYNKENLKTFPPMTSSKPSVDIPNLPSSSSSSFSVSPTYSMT


Legend:
cynomolgus monkey MuSK [1] = target: T7, cynomolgus monkey MuSK (cynomolgus monkey, UniProt A0A2K5USF6 24-487); test: Biacore, MuSK on chip, association pH 7.4, dissociation pH 5.5
T7 sequence (A0A2K5USF6 entry or part of it): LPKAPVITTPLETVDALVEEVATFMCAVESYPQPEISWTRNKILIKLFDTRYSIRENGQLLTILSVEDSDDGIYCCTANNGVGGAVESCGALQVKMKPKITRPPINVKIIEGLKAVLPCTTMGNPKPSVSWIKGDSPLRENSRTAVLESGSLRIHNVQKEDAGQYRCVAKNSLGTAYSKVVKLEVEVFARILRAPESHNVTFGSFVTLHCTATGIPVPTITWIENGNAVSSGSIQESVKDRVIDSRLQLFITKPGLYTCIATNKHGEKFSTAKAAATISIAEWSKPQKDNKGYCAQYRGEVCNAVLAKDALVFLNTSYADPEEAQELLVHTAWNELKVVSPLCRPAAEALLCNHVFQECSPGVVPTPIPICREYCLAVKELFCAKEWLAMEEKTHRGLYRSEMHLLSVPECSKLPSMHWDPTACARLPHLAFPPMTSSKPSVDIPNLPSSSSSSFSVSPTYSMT
Description: (§1) For affinity determination, a CMS chip was coated with cynomolgus monkey, rat and mouse MuSK (200RU) and 66.7 nM of antibody was applied and kinetic parameters calculated (Table 8). The following conclusions could be drawn: (1) 3B2g1m3 and 3B2g2m3 (m3 variants) show significant drop in affinity for MuSK for all species tested; (2) 3B2g1m2 and 3B2g2m2 (m2 variants) show some drop in affinity for MuSK; (3) 3B2g1m1, 3B2g2m1, 3B2g1m4, 3B2g2m4 (ml and m4 variants) show no drop in affinity for MuSK for all species tested; and (4) for all clones there is no difference between g1 and g2 variants (VL methionine versus serine in CDR3).
(§2) In order to study pH dependent binding of our antibodies to MuSK, the same Biacore was used as above, but now dissociation was done at pH 5.5 instead of pH 7.4. […] The following conclusions could be drawn for the different variants: (1) 3B2g1m3 and 3B2g2m3 (m3 variants) show significant drop in affinity for MuSK for all species tested; (2) 3B2g1m2 and 3B2g2m2 (m2 variants) show some drop in affinity for MuSK; (3) 3B2g1m1, 3B2g2m1, 3B2g1m4, 3B2g2m4 (m1 and m4 variants) show no drop in affinity for MuSK for all species tested; and (4) for all clones there is no difference between g1 and g2 variants (VL methionine versus serine in CDR3).

mouse MuSK [2] = target: T1, mouse MuSK; test: as above
Description: as §1, §2

rat MuSK [3] = target: T2, rat MuSK; test: as above
Description: as §1, §2

cynomolgus monkey MuSK [4] = target: T7, cynomolgus monkey MuSK; test: Biacore, MuSK on chip (200RU), 66.7 nM mAb, dissociation pH 7.4
Description: as §1

mouse MuSK [5] = target: T1, mouse MuSK; test: as above
Description: as §1

rat MuSK [6] = target: T2, rat MuSK; test: as above
Description: as §1

[7] = target: T3, mFz: Fz domain and C-terminal flanking …; test: bead-binding assay, Fab format: biotinylated antigen on streptavidin beads, flow cytometry, 1:1 fit; average ± s.d., n=3
[8] = target: T4, hECD: full-length extracellular region …; test: as above
[9] = target: T5, mECD: full-length extracellular region …; test: as above
[10] = target: T6, hFz: Fz domain and C-terminal flanking …; test: as above

| Binder | R0 (cynomolgus monkey MuSK [1]) | koff (cynomolgus monkey MuSK [1]) | kon (cynomolgus monkey MuSK [1]) | R0 (mouse MuSK [2]) | koff (mouse MuSK [2]) | kon (mouse MuSK [2]) | R0 (rat MuSK [3]) | koff (rat MuSK [3]) | kon (rat MuSK [3]) | R0 (cynomolgus monkey MuSK [4]) | koff (cynomolgus monkey MuSK [4]) | kon (cynomolgus monkey MuSK [4]) | R0 (mouse MuSK [5]) | koff (mouse MuSK [5]) | kon (mouse MuSK [5]) | R0 (rat MuSK [6]) | koff (rat MuSK [6]) | kon (rat MuSK [6]) | Kd [7] | Kd [8] | further results |
| --- | --- | --- | --- | --- | --- | --- | --- | --- | --- | --- | --- | --- | --- | --- | --- | --- | --- | --- | --- | --- | --- |
| 3B2g2m1 (antibody, human IgG1, V domains shown, human IgG1-LALA backbone; produced in HEK293 cells; also called MuSK agonist antibody 3B2g2m1; MuSK-mAb 3B2g2m1) VH: EVQLLESGGGLVQPGGSLRLSCAASGFTFSDYGMSWVRQAPGKGLEWVSAIPWSGGSTYYKESVKGRFTISRDNSKNTLYLQMNSLRAEDTAVYYCAKRSGRIAFGALDAWGQGTLVTVSS VL: QTVVTQEPSFSVSPGGTVTLTCGLSSGSVTSSNYPDWYQQTPGQAPRTLIYSTDSRHSGVPDRFSGSILGNKAALTITGAQADDESDYYCGLYSYSGSKNYVFGGGTKLTVL | 151 RU | 0.00288 s⁻¹ | 850000 M⁻¹ s⁻¹ | 193 RU | 0.00339 s⁻¹ | 1.18e+06 M⁻¹ s⁻¹ | 174 RU | 0.00555 s⁻¹ | 1.15e+06 M⁻¹ s⁻¹ | 144 RU | 0.00109 s⁻¹ | 890000 M⁻¹ s⁻¹ | 195 RU | 0.00104 s⁻¹ | 1.32e+06 M⁻¹ s⁻¹ | 160 RU | 0.00193 s⁻¹ | 1.4e+06 M⁻¹ s⁻¹ | – | – | – |
| 3B2g1m1 (antibody, human IgG1, V domains shown, human IgG1-LALA backbone; produced in HEK293 cells) VH: EVQLLESGGGLVQPGGSLRLSCAASGFTFSDYGMSWVRQAPGKGLEWVSAIPWSGGSTYYKESVKGRFTISRDNSKNTLYLQMNSLRAEDTAVYYCAKRSGRIAFGALDAWGQGTLVTVSS VL: QTVVTQEPSFSVSPGGTVTLTCGLSSGSVTSSNYPDWYQQTPGQAPRTLIYSTDSRHSGVPDRFSGSILGNKAALTITGAQADDESDYYCGLYMYSGSKNYVFGGGTKLTVL | 147 RU | 0.0029 s⁻¹ | 810000 M⁻¹ s⁻¹ | 192 RU | 0.00339 s⁻¹ | 1.19e+06 M⁻¹ s⁻¹ | 166 RU | 0.00595 s⁻¹ | 1.16e+06 M⁻¹ s⁻¹ | 143 RU | 0.00117 s⁻¹ | 840000 M⁻¹ s⁻¹ | 193 RU | 0.0011 s⁻¹ | 1.25e+06 M⁻¹ s⁻¹ | 157 RU | 0.00192 s⁻¹ | 1.32e+06 M⁻¹ s⁻¹ | – | – | – |

Second part, led by results:

| R0 (cynomolgus monkey MuSK [1]) | koff (cynomolgus monkey MuSK [1]) | kon (cynomolgus monkey MuSK [1]) | R0 (mouse MuSK [2]) | koff (mouse MuSK [2]) | kon (mouse MuSK [2]) | R0 (rat MuSK [3]) | koff (rat MuSK [3]) | kon (rat MuSK [3]) | R0 (cynomolgus monkey MuSK [4]) | koff (cynomolgus monkey MuSK [4]) | kon (cynomolgus monkey MuSK [4]) | R0 (mouse MuSK [5]) | koff (mouse MuSK [5]) | kon (mouse MuSK [5]) | R0 (rat MuSK [6]) | koff (rat MuSK [6]) | kon (rat MuSK [6]) | Kd [7] | Kd [8] | Binder | further results |
| --- | --- | --- | --- | --- | --- | --- | --- | --- | --- | --- | --- | --- | --- | --- | --- | --- | --- | --- | --- | --- | --- |
| – | – | – | – | – | – | – | – | – | – | – | – | – | – | – | – | – | – | 12 nM | 6 nM | X7 Fab (Fab, V domains shown, also called Fab Clone X7) VH: EVQLVESGGGLVQPGGSLRLSCAASGFTLYSSSIHWVRQAPGKGLEWVASISSSYSSTYYADSVKGRFTISADTSKNTAYLQMNSLRAEDTAVYYCARLAGLYHYPGYLGLDYWGQGTLVTVSS VL: DIQMTQSPSSLSASVGDRVTITCRASQSVSSAVAWYQQKPGKAPKLLIYSASSLYSGVPSRFSGSRSGTDFTLTISSLQPEDFATYYCQQSSRSSLLTFGQGTKVEIK | Kd [9]: 16.2 nM; Kd [10]: 4.5 nM |
| – | – | – | – | – | – | – | – | – | – | – | – | – | – | – | – | – | – | 4.7 nM | 1.69 nM | X8 Fab (Fab, V domains shown, also called Fab Clone X8) VH: EVQLVESGGGLVQPGGSLRLSCAASGFTVSSSSIHWVRQAPGKGLEWVASISSSSGSTSYADSVKGRFTISADTSKNTAYLQMNSLRAEDTAVYYCARSWSYHPWYYHVGWYTGLDYWGQGTLVTVSS VL: DIQMTQSPSSLSASVGDRVTITCRASQSVSSAVAWYQQKPGKAPKLLIYSASSLYSGVPSRFSGSRSGTDFTLTISSLQPEDFATYYCQQSSSSLITFGQGTKVEIK | Kd [9]: 44 nM; Kd [10]: 1.4 nM |
